assay: yeast display, Sf9 membrane polyspecificity reagent, FACS + sequencing; frameworks hold sequencing errors
How it was run: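 Sorting gates, low and high (top ~1%), were placed on anti-HA fluorescence to track expression and on streptavidin fluorescence to track reagent binding. A clone's polyreactivity label is taken from the gate it came out of. The reagent was 10% biotinylated, detergent-solubilized Sf9 membrane, applied for 1 hour at 4 °C to galactose-induced yeast display cells.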

| Sequence | polyreactivity (PSR sort gate) |
| --- | --- |
| QVQLVESGGGLVQAGGSLRLSCAASGRTFYSNTMGWYRQAPGKEREFVAAIPSIVGSTYYADSVKGRFTISRDNAKNTVYLQMNSLKPEDTAVYYCATRYVVIEYDYWGQGTQVTVSS | low polyreactivity |
| QVQLVESGGGLVQAGGSLRLSCAASGRTFYSYAMGWYRQAPGKERELVAAISGRGGRTYYADSVKGRFTISRDNAKNTVYLQMNSLKPEDTAVYYCAKGGYAIRYYGFDYWGQGTQVTVSS | high polyreactivity |
| QVQLVESGGGLVQAGGSLRLSCAASGRTFYSYAMGWYRQAPGKERELVAAISKRGTSTYYADSVKGRFTISRDNAKNTVYLQMNSLKPEDTAVYYCAAAYRGREVEYNSWGQGTQVTVSS | high polyreactivity |
| QVQLVESGGGLVQAGGSLRLSCAASGRTFYSYAMGWYRQAPGKERELVAAITSGDSTNYADSVKGRFTISRDNAKNTVYLQMNSLKPEDTAVYYCAAEYSGWYWYQHYNYWGQGTQVTVSS | high polyreactivity |
| QVQLVESGGGLVQAGGSLRLSCAASGRTFYSYVMGWYRQAPGKEREVVAAIPRSGGSTNYADSVKGRFTISRDNAKNTVYFQMHSRKPEDTAVYYCASRAGRTLRTHYDYWGQGTQGTVSS | high polyreactivity |
| QVQLVESGGGLVQAGGSLRLSCAASGRTFYTNAMGWYRQAPGKERELVAAITGDGTSTYYADSVKGRFTISRDNAKNTVYLEMNSLKPEDTAVYYCNATLPDYWPYYYYQGGDDYWGQGTQVTVSS | low polyreactivity |
| QVQLVESGGGLVQAGGSLRLSCAASGRTFYTNAMGWYRQAPGKERELVAGISWGDGNTYYADSVKGRFTISRDNAKNTVYLQMNSLKPEDTAVYYCAVTYIILWSYSHTEFDYWGQGNQVTVSS | low polyreactivity |
| QVQLVESGGGLVQAGGSLRLSCAASGRTFYTNAMGWYRQAPGKERELVAVISRGGTTYYADSVKGRFTISRDNEKNTVYIQMNSLKPEDTAFYYCAIQSPSGDSSSQMGSWGQGTQVTVSS | low polyreactivity |
| QVQLVESGGGLVQAGGSLRLSCAASGRTFYTNGMGWYRQAPGKEREFVAGITYRGGGTYYADSVKGRFTISRDNAKNTVYLQMNSLKPEDTAVYYCNTRWILGRRFYYWGQGTQVTVSS | high polyreactivity |
| QVQLVESGGGLVQAGGSLRLSCAASGRTFYTYAMGWNRQAPGKEREFVAAITGSGGSTYYADSVKWRFTISRDNAKNTVYLQMTSLKPDDRAVYYCNAGSPGDVWYYYWGQGTQVTVSS | low polyreactivity |
| QVQLVESGGGLVQAGGSLRLSCAASGRTFYTYAMGWYRQAPGKERELVAAISSDGSTYYADSVKGRFTISRDNAKNTVYLQMNSLKPEDTAVYYCAADYSPWYWGYTYYYWGQGTQVTVSS | high polyreactivity |
| QVQLVESGGGLVQAGGSLRLSCAASGRTFYVNAMGWYRQAPGKERELVAAINTIGGRTYYADSVKGRFTISRDNAKNTVYLQMNSLKTEDTAVYYCAARQVSRWGYDYWGQGTQVTVSS | high polyreactivity |
| QVQLVESGGGLVQAGGSLRLSCAASGRTFYVYAMGWYRQAPGKERELVAAISWGGGSTYYADSVKGRFTISRDNAKNTVYLQMNSLKPEDTAVYYFAAESWTSGTNVPVWYYGYSWGQGTQVTVSS | low polyreactivity |
| QVQLVESGGGLVQAGGSLRLSCAASGRTFYVYAMGWYRQAPGKERELVAAISWRGGSTYYADSVKGRFTISRDNAKNTVYLQMNSLKPEDTAVYYCATAGGDWYGVDYWGQGTQVTVSS | low polyreactivity |
| QVQLVESGGGLVQAGGSLRLSCAASGRTFYVYAMGWYRQAPGKERELVAAITASGGSTYYADSVKGRFTLSRDNAKNTVYLQMNSLKPEDTAVYYCAARVVTLVRGVGYNYWGQGTQVTVSS | high polyreactivity |
| QVQLVESGGGLVQAGGSLRLSCAASGRTFYVYAMGWYRQAPGKERELVAAITYTGGDTYYADSVKGRFTISRDNAKNTVYLQMNSLKPEDTAVYYCAADFGPYYRFDYWGQGTQVTVSS | low polyreactivity |
| QVQLVESGGGLVQAGGSLRLSCAASGRTFYVYAMGWYRQAPGKERELVATITSRGGRTYYADSVKGRFTISRDNAKNTVYLQMNSLKPEDTAVDYCNAAWWKVSYVRQKYFYWGQGTQVTVSS | high polyreactivity |
| QVQLVESGGGLVQAGGSLRLSCAASGRTFYVYAMGWYRQAPGKVSELVAAISASGGRTYYADSVKGGFTISRDNAKNTVYLQMNSLKPEDTAVYYCAAEGRRGGKDYDYWGQGTQVTVSS | high polyreactivity |
| QVQLVESGGGLVQAGGSLRLSCAASGRTFYVYTMGWYRQAPGKERELVAGISYSGGSTYYADSVKGRFTISRDNAKNTVYLQMNSLKPEDTAVYYCNRGLAARVGRGDYWGQGTQVTVSS | low polyreactivity |
| QVQLVESGGGLVQAGGSLRLSCAASGRTFYWNAMGWYRQAPGKERELVAAITRNGGSTYYADSVKGRFTISRDNAKNTVYLQMNSLKPEDTAVYYCAARKRYGAGYDYWGQGTQVTVSS | high polyreactivity |
| QVQLVESGGGLVQAGGSLRLSCAASGRTFYWYAMGWYRQAPGKERELVAAIRWSTGSTYYADSVKGRFTISRDNAKNTVYLQMNSLKPEDTAVYYCAATRPSWRYNYWGQGTQVTVSS | high polyreactivity |
| QVQLVESGGGLVQAGGSLRLSCAASGRTFYWYTMGWYRQATGKERELVAAISIGGITSYADSVKGRFTISRDNAKNTVYLQMNSLKPEDTAVYYCAAPLSYKNVKYDYWGQGTQVTVSS | low polyreactivity |

| Sequence | polyreactivity (PSR sort gate) |
| --- | --- |
| QVQLVESGGGLVQAGGSLRLSCAASGRTFYYNAMGWYRQAPGKERELVAAISGRGGSTYYADSVKGRFTISRDNAKNTVYLQMNSLKPEDTAVYYCNAVRYKYTGRFGYWGQGTQVTVSS | high polyreactivity |
| QVQLVESGGGLVQAGGSLRLSCAASGRTFYYNAMGWYRQAPGKERELVAAISSGDSTYYADSVKGRFTISRDNAKNTVYLQMNSLKPEDTAVYYCNKYVAYDYWGQGTQVTVSS | low polyreactivity |
| QVQLVESGGGLVQAGGSLRLSCAASGRTFYYNAMGWYRQAPGKERELVAAISWSGGSTYYADSVKGRFTISRDNAKNTVYLQMNSLKPEDTAVYYCAAGAYSYRKYRSYDYWGQGTQVTVSS | high polyreactivity |
| QVQLVESGGGLVQAGGSLRLSCAASGRTFYYNAMGWYRQAPGKERELVAVITRGSTYYADSVKGRFSISRDNAKNTVYLQMKSLKPEDTAVYYCCKYRHYHRGYDYWGQGTQVTVSS | high polyreactivity |
| QVQLVESGGGLVQAGGSLRLSCAASGRTFYYNAMGWYRQAPGKEREMVADINWSGVRTYYADSVKGRFTISRDNAKNTVYLQMNSLKPEDTAAYYCAAERLLYKHYEEDYWGQGTQVTVSS | low polyreactivity |
| QVQLVESGGGLVQAGGSLRLSCAASGRTFYYNAMGWYRQAPGKERQLVAAITSSGSTYYADSVKGRFTISRDNAKNTVYLQMNSLKPEDTAVYYCASVTSYSHYRLSGWYRFEYWGQGTQVTVSS | high polyreactivity |
| QVQLVESGGGLVQAGGSLRLSCAASGRTFYYNTMGWYRQAPGKERELVAAITRGGSTYYADSVKGRFTISRVNAKNTVYLQMNSLKPEETAVYYCNAPRYLRRYVKDHDYWGEGTQVTVSS | high polyreactivity |
| QVQLVESGGGLVQAGGSLRLSCAASGRTFYYYAMGWNRQAPGTERELVAAITTDGGNTYYADSVKGRFTISRDTAKNTVYLQMNSLKPEDTAVYYCATDGYEYTDYGSSGYDYWGQGTQVTVSS | low polyreactivity |
| QVQLVESGGGLVQAGGSLRLSCAASGRTFYYYAMGWSRQAPGKERELVAAIRWRATSTFYADSVKGRFTISRDNAKNTVYLQMNSLKPEDSAVYYCATTGGYRLQAQKYYYWGQGTQVTLSS | high polyreactivity |
| QVQLVESGGGLVQAGGSLRLSCAASGRTFYYYAMGWYIPAPGKERELVARISYSGSNTYYADSVKGRFTISRDTAKNTVYLQMNSLKREVTAGYYCAAGYLVWRDSATLDYWGQGTQVTVSS | high polyreactivity |
| QVQLVESGGGLVQAGGSLRLSCAASGRTFYYYAMGWYRPAPGKERELVAAIRRSGSSTYYADSVKGRFTISRDNAKNTVYLQMNSLKPEDTAVYYCAAAVYQRARYYWGQGTQVTVSS | high polyreactivity |
| QVQLVESGGGLVQAGGSLRLSCAASGRTFYYYAMGWYRQAPCKERELVSAITTDGGNTYYADSVKGRFTISRDNAKNTVYLQMNSLKPEDTAVYYCATDGYEYTDYGSSGYDYWGQGTQVTVSS | low polyreactivity |
| QVQLVESGGGLVQAGGSLRLSCAASGRTFYYYAMGWYRQAPGKERELVAAISGSGGSTYYADSVKGRFTISRDIAKNTVYLQMNSLKPEDTAVYYCAASGPRRRYDYWGQGTQVTVSS | high polyreactivity |
| QVQLVESGGGLVQAGGSLRLSCAASGRTFYYYAMGWYRQAPGKERELVAAISKSGGSTYYADSVKGRFTISRDNAKNTVYLQMNSLKPEDTAVYYCAALTTHAPHSYNYWGQGTQVTVSS | low polyreactivity |
| QVQLVESGGGLVQAGGSLRLSCAASGRTFYYYAMGWYRQAPGKERELVAAISWSGGSTYYADSVKGRFTISRDNAKNTVYLQMNSLKPEDTAVYYCAARLPENSFGLYYYWGQGTQVTVSS | high polyreactivity |
| QVQLVESGGGLVQAGGSLRLSCAASGRTFYYYAMGWYRQAPGKERELVARISRGGSTNYADSVKGRFTISRDNAKNTVYLQMNILKPEDTAVYYCAKTISYTGRFWGYDYWGQGTQVTVSS | high polyreactivity |
| QVQLVESGGGLVQAGGSLRLSCAASGRTFYYYAMGWYRQAPGKERELVAVISWDDGSTYYADSVKGRFTISRDNAKNTVYLQMNSLKPEVTAVYYCAAYDYLDYADDYWGQGTQVTVSS | low polyreactivity |
| QVQLVESGGGLVQAGGSLRLSCAASGRTFYYYGRVWYRQAPGKERDFVAAITRSGGRTYYADSVKGRFTISRDNAKNTVYLQMNSLKPEDTAVYYCATGGYYRYSGLSVYGYPYEYWGQGTQVTVSS | high polyreactivity |
| QVQLVESGGGLVQAGGSLRLSCAASGRTFYYYTMGWYRQPPRKEREFVAAISWSGGSKYYADSVKGRFTISRDNAKNTVYLQMNSLIPEDTAVYYCNARSFATGSKVPARGYWVQGTQVTVSS | high polyreactivity |
| QVQLVESGGGLVQAGGSLRLSCAASGRTFYYYYTMGWYRQPPGKETELVAAISRSGSTNYADSVKGRFTISRDNAKNTVYLQMNSLKPEDTAVYYCARSYRSDGSRFGYWGQGTQVTVSS | low polyreactivity |
| QVQLVESGGGLVQAGGSLRLSCAASGRTIASYAMGWYRQAPGKERELVAAITSGGSTYYADSVKGRFTISRDNAKNTVYLQINSLKPEDTAVYYCARKHAIWRGYDYWGQGNQVTVSS | low polyreactivity |
